The values below come from patent US20080096792A1 (SEOUL NATIONAL UNIVERSITY INDUSTRY FOUNDATION, published 2008).

Assay [1] addresses integrin α3β1 on HOK-16B cells (human (HOK-16B human oral keratinocytes)) (UniProt P26006). Description: cell-based or functional assay.
Assay [2] has as its target integrin α3β1 on HOK-16B cells (human (HOK-16B human oral keratinocytes), UniProt P26006 33-1051; P05556 21-798). Description: cell-based or functional assay.

Chain of integrin α3β1 on HOK-16B cells (human (HOK-16B human oral keratinocytes)) (P26006 33-1051, chain 1 of 2): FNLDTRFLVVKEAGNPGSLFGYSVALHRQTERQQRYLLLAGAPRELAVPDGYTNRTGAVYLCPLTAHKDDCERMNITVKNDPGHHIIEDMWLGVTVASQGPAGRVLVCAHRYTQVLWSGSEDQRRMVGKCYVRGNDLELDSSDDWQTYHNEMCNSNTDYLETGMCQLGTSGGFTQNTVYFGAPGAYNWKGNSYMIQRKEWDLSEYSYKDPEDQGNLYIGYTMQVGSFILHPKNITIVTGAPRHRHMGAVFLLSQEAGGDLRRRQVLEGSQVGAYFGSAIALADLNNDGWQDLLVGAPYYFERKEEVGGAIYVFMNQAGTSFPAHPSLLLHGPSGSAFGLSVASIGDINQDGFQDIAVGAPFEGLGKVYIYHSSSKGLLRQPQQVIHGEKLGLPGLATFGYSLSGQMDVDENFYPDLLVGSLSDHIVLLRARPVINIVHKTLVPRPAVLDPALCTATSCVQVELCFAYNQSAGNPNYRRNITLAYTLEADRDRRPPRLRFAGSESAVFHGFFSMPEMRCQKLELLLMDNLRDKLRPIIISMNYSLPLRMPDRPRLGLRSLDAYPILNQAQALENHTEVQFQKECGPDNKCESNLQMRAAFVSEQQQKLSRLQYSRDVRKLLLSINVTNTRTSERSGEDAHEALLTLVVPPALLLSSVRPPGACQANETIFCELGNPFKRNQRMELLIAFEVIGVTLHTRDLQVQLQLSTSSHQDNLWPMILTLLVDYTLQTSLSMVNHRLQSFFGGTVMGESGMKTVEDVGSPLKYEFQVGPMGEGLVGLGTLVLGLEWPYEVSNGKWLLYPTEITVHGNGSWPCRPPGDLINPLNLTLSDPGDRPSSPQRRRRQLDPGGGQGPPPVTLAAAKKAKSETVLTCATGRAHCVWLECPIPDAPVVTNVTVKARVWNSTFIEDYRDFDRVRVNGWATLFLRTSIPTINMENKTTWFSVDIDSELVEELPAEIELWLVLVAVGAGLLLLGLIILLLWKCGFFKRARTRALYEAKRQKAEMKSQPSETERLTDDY
Chain of integrin α3β1 on HOK-16B cells (human (HOK-16B human oral keratinocytes)) (P05556 21-798, chain 2 of 2, further chain): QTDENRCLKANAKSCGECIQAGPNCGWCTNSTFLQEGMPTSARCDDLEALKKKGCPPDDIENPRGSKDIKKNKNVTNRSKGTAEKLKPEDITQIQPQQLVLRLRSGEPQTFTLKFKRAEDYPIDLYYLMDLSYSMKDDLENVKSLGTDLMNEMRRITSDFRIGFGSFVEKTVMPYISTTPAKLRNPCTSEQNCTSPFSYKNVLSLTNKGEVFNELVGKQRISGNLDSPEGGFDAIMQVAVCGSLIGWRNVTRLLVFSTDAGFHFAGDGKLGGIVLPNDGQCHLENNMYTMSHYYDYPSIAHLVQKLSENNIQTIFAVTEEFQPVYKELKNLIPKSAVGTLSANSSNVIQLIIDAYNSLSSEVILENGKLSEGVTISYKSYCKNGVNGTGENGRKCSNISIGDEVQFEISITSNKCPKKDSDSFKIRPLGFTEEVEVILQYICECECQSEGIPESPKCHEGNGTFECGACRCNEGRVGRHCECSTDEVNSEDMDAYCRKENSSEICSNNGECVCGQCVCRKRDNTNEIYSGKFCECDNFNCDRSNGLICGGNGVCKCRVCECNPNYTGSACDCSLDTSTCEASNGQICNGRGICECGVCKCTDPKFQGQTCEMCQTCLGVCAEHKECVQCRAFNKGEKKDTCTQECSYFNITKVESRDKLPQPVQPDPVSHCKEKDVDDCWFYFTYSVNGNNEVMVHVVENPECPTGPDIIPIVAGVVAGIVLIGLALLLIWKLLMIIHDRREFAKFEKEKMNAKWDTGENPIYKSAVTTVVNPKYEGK
Chain of integrin α3β1 on HOK-16B cells (P26006 33-1051, chain 1 of 2): as the sequence (P26006 33-1051, chain 1 of 2) above
Chain of integrin α3β1 on HOK-16B cells (P05556 21-798, chain 2 of 2): as the sequence (P05556 21-798, chain 2 of 2, further chain) above

human placental laminin (LN) (ligand) had an FAK phosphorylation at Tyr-397 in HOK-16B cells, fold induction compared with the untreated control in assay [1] of 16.2 fold.

B1: recombinant LG3 protein of the human laminin-5 α3 chain (rLG3-His6) (ligand)
chain: MRGSHHHHHHGMASMTGGQQMGRDLTDDDDKDPSSRSAAGTMEFDFVRLNDTVGVTKKCSEDWKLVRSASFSRGGQLSFTDLGLPPTDHLQASFGFQTFQPSGILLDHQTWTRNLQVTLEDGYIELSTSDSGGPIFKSPQTYMDGLLHYVSVISDNSGLRLLIDDQLLRNSKRLKHISSSRQSLRLGGSNFEGCISNVFVQRLSLSPEVLDLTSNSLKRDVSLGGCSLNKPPFLMLLKGSTRFNKTKTFRINQLLQDTPVASPRSVKVWQDACSPLPKTQANHESLVNSLLDPAANKARKVAELAAATAEQ
Take B1: the “FAK phosphorylation at Tyr-397 in HOK-16B cells, fold induction compared with the untreated control” value in assay [2] amounted to 8.2 fold.
